# Experimental data: article PMC6037669, “Optimization of a MT1-MMP-targeting Peptide and Its Application in Near-infrared Fluorescence Tumor Imaging” (Scientific Reports, 2018)
# B1: MT1-AF7p-H4R (peptide)
# peptide: HWKRLHNTKTFL
# notes: MT1-AF7p with histidine 4 changed to arginine (rational design by docking); In the AFM experiments coupled covalently to the tip through an NHS-PEG18-aldehyde linker; also called optimized peptide; peptidomimetic; source: synthetic peptide, bought: GL Biochem Ltd. (Shanghai)
# B2: MT1-AF7p (peptide)
# peptide: HWKHLHNTKTFL
# notes: In the AFM experiments coupled covalently to the tip through an NHS-PEG18-aldehyde linker; In the in vivo imaging Cy5.5 was conjugated to the N-terminus; also called original peptide; original ligand; source: synthetic peptide (solid-phase, Fmoc chemistry, HPLC purified)
# B3: MT1-AF7p-H4K (peptide)
# peptide: HWKKLHNTKTFL
# notes: MT1-AF7p with histidine 4 changed to lysine (rational design by docking); In the AFM experiments coupled covalently to the tip through an NHS-PEG18-aldehyde linker; also called optimized peptide; peptidomimetic; source: synthetic peptide, bought: GL Biochem Ltd. (Shanghai)
# Legend:
# Conditions in all cases: both partners purified
# MT1-160p = target: T1, MT1-160p (human); assay: atomic force microscopy (single-molecule recognition force spectroscopy); peptide covalently on the AFM tip through NHS-PEG18-aldehyde; MT1-160p immobilised on APTES-treated mica; PBS
# T1 construct: peptide of MT1-MMP (MMP14) that holds the MT-Loop (Tyr164-Gln174); source: synthetic peptide, bought: GL Biochem Ltd. (Shanghai)
# T1 peptide: REVPYAYIREGHEKQ
# [1] = target: T2, recombinant human MT1-MMP catalytic domain (human, UniProt P50281 114-287); assay: atomic force microscopy (single-molecule recognition force spectroscopy); peptide covalently on the AFM tip through NHS-PEG18-aldehyde; MT1-MMP immobilised on APTES-treated mica; PBS; 25 °C; control with free excess peptide (1 mmol/L)
# T2 construct: MT1-MMP (MMP14), human, catalytic domain (20 kDa); PDB 1BQQ chain M is the catalytic domain structure used for the docking, not necessarily the same limits; also called Membrane type 1 metalloproteinase; MMP14
# [2] = target: T2, recombinant human MT1-MMP catalytic …; assay: ITC; MicroCal ITC-200, 25 °C, 10 mM HEPES, 150 mM NaCl, pH 7.4; results and legend: peptides injected into MT1-MMP; methods: MT1-160p (1 mM) in the syringe into binding peptides (0.1 mM) in the cell; one-site binding model
Binder,binding result (MT1-160p),retraction force (peak position of the histogram) [1],Ka [2],dH [2],stoichiometry N [2]
B1,binds,260 pN,175000 M⁻¹,-0.29 kcal/mol,1.14
B2,binds,150 pN,107000 M⁻¹,–,–
B3,binds,166 pN,–,–,–
